Patent US20250340608A1 (PROTAGONIST THERAPEUTICS, published 2025)
Where two headings read alike, the source gives them in different places. Bridge positions count the residues as written; N and C are the ends. Ends that are not written are not given here. * marks the point of attachment. Isovaleryl = CC(C)CC(=O)*

T1: human ferroportin (SLC40A1) fused in frame with GFP, stably expressed on HEK293 cells (human, UniProt Q9NP59 1-571)
T1 sequence (looked up): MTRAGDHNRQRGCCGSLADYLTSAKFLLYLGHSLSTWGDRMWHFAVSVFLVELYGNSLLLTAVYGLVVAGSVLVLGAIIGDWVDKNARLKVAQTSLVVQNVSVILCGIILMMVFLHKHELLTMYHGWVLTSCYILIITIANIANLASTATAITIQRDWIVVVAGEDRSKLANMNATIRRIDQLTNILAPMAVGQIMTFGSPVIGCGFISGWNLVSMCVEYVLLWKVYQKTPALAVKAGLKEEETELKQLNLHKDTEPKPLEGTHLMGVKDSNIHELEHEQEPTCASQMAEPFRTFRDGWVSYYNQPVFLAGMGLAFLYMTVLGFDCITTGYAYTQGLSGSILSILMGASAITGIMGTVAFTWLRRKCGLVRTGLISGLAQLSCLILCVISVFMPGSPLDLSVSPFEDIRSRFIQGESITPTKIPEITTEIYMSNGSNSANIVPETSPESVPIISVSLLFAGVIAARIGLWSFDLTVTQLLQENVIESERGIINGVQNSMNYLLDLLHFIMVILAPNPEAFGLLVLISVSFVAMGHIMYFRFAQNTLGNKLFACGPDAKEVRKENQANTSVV

T2: human ferroportin (SLC40A1) fused in frame with GFP, stably expressed in HEK293 cells (human, UniProt Q9NP59 1-571)
T2 sequence (looked up): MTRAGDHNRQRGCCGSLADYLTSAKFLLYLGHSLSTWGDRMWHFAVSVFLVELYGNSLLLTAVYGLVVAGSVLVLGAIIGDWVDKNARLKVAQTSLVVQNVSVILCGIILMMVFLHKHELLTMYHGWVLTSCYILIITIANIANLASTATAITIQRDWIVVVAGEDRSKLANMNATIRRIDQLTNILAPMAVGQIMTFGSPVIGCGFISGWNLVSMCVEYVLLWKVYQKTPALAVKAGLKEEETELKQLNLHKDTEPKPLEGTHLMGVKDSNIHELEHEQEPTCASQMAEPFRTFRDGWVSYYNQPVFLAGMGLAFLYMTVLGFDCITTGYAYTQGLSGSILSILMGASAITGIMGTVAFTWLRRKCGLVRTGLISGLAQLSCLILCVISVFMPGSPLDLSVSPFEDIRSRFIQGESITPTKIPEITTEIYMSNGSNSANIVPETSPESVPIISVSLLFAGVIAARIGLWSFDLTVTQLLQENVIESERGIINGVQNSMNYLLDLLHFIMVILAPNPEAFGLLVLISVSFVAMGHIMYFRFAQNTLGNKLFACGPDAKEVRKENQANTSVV


Experiments:
Test in all cases: cell-based or functional assay
[1] = target: T1, human ferroportin (SLC40A1) fused in …
[2] = target: T2, human ferroportin (SLC40A1) fused in …
[3] = target: T2, human ferroportin (SLC40A1) fused in …; remark: listed apart in the source
[4] = target: T2, human ferroportin (SLC40A1) fused in …; remark: listed apart in the source
[5] = target: T2, human ferroportin (SLC40A1) fused in …; remark: listed apart in the source
[6] = target: T2, human ferroportin (SLC40A1) fused in …; remark: listed apart in the source
[7] = target: T2, human ferroportin (SLC40A1) fused in …; remark: listed apart in the source
[8] = target: T1, human ferroportin (SLC40A1) fused in …; remark: listed apart in the source

Row | Log dilutions EC50 (nM) (n > 3) [2] | Log dilutions EC50 (nM) (n > 3) [3] | Binder | also measured
1 | – | – | FICIPFHTD (all residues are D-amino acids (retro inverse: reversed sequence in all D amino acids); C-terminal amide (-NH2)) [RI-Mini Hepcidin (Hy-DPhe-DIle-DCys-DIle-DPro-DPhe-DHis-DThr-DAsp-NH2)] | EC50 (nM), ferroportin degradation (loss of ferroportin-GFP fluorescence) [1]: > 10000 nM
2 | 2.2 | – | Isovaleryl-DTHFPICIFGPRSKGWVC-NH2 (disulfide 7-18 (inferred); not fully specified (residue 14); also: dimer through DIG linker on εN of Lys14 of each monomer) [Compound 353] | –
3 | 5 | – | Isovaleryl-DTHFPCIIFGPRSRGWVCK-NH2 (disulfide 6-18 (inferred); not fully specified (residue 19); also: dimer through DIG linker on εN of Lys19 of each monomer) [Compound 352] | –
4 | – | 15 | Isovaleryl-DTHFPCIKFK-NH2 (also: homodimer linked by DIG linker through Lys10 of each monomer) [Compound 346] | –
5 | 15 | – | Isovaleryl-DTHFPCIIFGPRSRGWVCK-NH2 (disulfide 6-18 (inferred)) [Compound 3] | In Vitro Activity EC50 [4]: 15 nM
6 | – | 8 | Isovaleryl-DTHFPCIKFK-NH2 (also: homodimer via disulfide between Cys6 of each monomer) [Compound 345] | EC50 (nM) (n > 3) [5]: 8 nM
7 | 4.1 | – | Isovaleryl-DTHFPICIFGPRSKGWVC-NH2 (disulfide 7-18 (inferred)) [Compound 2] | In Vitro Activity EC50 [4]: 5 nM
8 | – | – | H-DTHFPICAFGPRSKGWVCM-NH2 (disulfide 7-18 (inferred)) [Compound 68] | EC50 (nM) (n > 3) [6]: > 10000 nM
9 | – | > 1000 | DTHFPCIKF-NH2 (not fully specified; printed as [PEG25]-(DTHFPCIKF-NH2)2) [Compound 351] | –
10 | – | 5 | Isovaleryl-DTHFPCIKF-NH2 (also: homodimer with IDA-(β-Ala)-Palm linking moiety, attachment site not given here) [Compound 349] | –
11 | – | 6 | Isovaleryl-DTHFPCIKF-NH2 (also: homodimer via disulfide between Cys6 of each monomer) [Compound 326] | % Activity At 1 uM [7]: 100%; EC50 (nM) (n = 3) [7]: 3 nM; EC50 (nM) (n > 3) [5]: 3 nM
12 | – | 18 | H-DTHFPCIKF-NH2 (also: homodimer with IDA-(β-Ala) linking moiety, attachment site not given here) [Compound 348] | –
13 | – | – | H-DTHFPICIF-NH2 [Mini-Hepcidin 1-9 (Hy-DTHFPICIF-NH2)] | EC50 (nM), ferroportin degradation (loss of ferroportin-GFP fluorescence) [1]: 712 nM; EC50 (nM) (n > 3) [8]: 712 nM
